Patent US20250296959A1, “B7-H3 TARGETING PEPTIDES AND CONSTRUCTS THEREOF” (Mariana Oncology Inc., priority 2024, published 2025)
Starred links: 1 amine or outer side, 2 acyl side, 3 side chain; linkers in the order of their positions; H or OH if unused. Positions of bridges follow the written chain, without caps; N, C: chain ends. Non-standard residues stand in square brackets, D forms with d. Groups on a side chain read outwards from the residue. Primed or numbered codes have the meaning given here. *: point of attachment. Ala(piperidin-4-yl) = O=C([C@H](CC1CCN([*:3])CC1)N[*:1])[*:2]; DOTA = O=C(O)CN1CCN(CC(=O)O)CCN(CC(=O)*)CCN(CC(=O)O)CC1; Phe(4-COOH) = N[C@@H](Cc1ccc(C(=O)O)cc1)C(=O)O; Trp(5-F) = N[C@@H](Cc1c[nH]c2ccc(F)cc12)C(=O)O; PEG4′ = 4x 3-(2-aminoethoxy)propanoic acid; 1Nal = N[C@@H](Cc1cccc2ccccc12)C(=O)O; Ala(4-THP) = N[C@@H](CC1CCOCC1)C(=O)O; Val(3-OH) = CC(C)(O)[C@H](N)C(=O)O; 4Pal = N[C@@H](Cc1ccncc1)C(=O)O; aThr = C[C@H](O)[C@H](N)C(=O)O; Chg = N[C@H](C(=O)O)C1CCCCC1; Tle = CC(C)(C)[C@H](N)C(=O)O; hLeu = CC(C)CC[C@H](N)C(=O)O; Sar = CNCC(=O)O

T1: B7-H3 on Calu-6 cells (human, UniProt Q5ZPR3 29-534)
T1 construct: whole, on cells
T1 sequence (looked up): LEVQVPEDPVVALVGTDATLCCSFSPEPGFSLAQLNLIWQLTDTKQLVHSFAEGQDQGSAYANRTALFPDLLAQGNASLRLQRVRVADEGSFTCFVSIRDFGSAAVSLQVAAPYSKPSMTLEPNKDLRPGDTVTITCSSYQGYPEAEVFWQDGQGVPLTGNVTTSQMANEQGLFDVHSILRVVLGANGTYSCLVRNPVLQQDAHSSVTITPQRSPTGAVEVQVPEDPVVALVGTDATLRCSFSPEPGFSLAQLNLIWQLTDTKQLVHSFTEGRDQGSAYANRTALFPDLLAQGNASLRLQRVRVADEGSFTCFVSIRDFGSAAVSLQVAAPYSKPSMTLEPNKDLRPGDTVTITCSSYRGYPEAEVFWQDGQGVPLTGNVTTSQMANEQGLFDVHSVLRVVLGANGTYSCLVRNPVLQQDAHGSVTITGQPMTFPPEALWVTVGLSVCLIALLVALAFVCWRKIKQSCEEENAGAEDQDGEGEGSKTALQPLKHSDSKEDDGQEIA


Target: T1, B7-H3 on Calu-6 cells
Assay: 177Lu-labelled peptide on Calu-6 cells, % cell associated fraction; C = >50%

Row | % cell associated fraction | Binder
1 | > 50% | Ac-[hLeu]YCIGK[Ala(4-THP)]DVYC[Trp(5-F)]F[Val(3-OH)][dK]([PEG4′-DOTA])-OH (disulfide 3-11) [Cpd 308]
2 | > 50% | Ac-[hLeu]YCVG[Ala(piperidin-4-yl)][Phe(4-COOH)]DVYC[Trp(5-F)]FP[dK](DOTA)-NH2 (disulfide 3-11; SMILES CC(=O)N[C@@H](CCC(C)C)C(=O)N[C@@H](Cc1ccc(O)cc1)C(=O)N[C@H]1CSSC[C@@H](C(=O)N[C@@H](Cc2c[nH]c3ccc(F)cc23)C(=O)N[C@@H](Cc2ccccc2)C(=O)N2CCC[C@H]2C(=O)N[C@H](CCCCNC(=O)CN2CCN(CC(=O)O)CCN(CC(=O)O)CCN(CC(=O)O)CC2)C(N)=O)NC(=O)[C@H](Cc2ccc(O)cc2)NC(=O)[C@H](C(C)C)NC(=O)[C@H](CC(=O)O)NC(=O)[C@H](Cc2ccc(C(=O)O)cc2)NC(=O)[C@H](CC2CCNCC2)NC(=O)CNC(=O)[C@H](C(C)C)NC1=O) [Cpd 286]
3 | > 50% | Ac-[hLeu]YCVGK[4Pal]D[Chg]YC[Trp(5-F)]FT[dK](DOTA)-NH2 (disulfide 3-11; SMILES CC(=O)N[C@@H](CCC(C)C)C(=O)N[C@@H](Cc1ccc(O)cc1)C(=O)N[C@H]1CSSC[C@@H](C(=O)N[C@@H](Cc2c[nH]c3ccc(F)cc23)C(=O)N[C@@H](Cc2ccccc2)C(=O)N[C@H](C(=O)N[C@H](CCCCNC(=O)CN2CCN(CC(=O)O)CCN(CC(=O)O)CCN(CC(=O)O)CC2)C(N)=O)[C@@H](C)O)NC(=O)[C@H](Cc2ccc(O)cc2)NC(=O)[C@H](C2CCCCC2)NC(=O)[C@H](CC(=O)O)NC(=O)[C@H](Cc2ccncc2)NC(=O)[C@H](CCCCN)NC(=O)CNC(=O)[C@H](C(C)C)NC1=O) [Cpd 190]
4 | > 50% | Ac-[hLeu]YCVGKYD[Chg]YC[Trp(5-F)]FT[dK](DOTA)-NH2 (disulfide 3-11) [Cpd 215]
5 | > 50% | Ac-[hLeu]YCVGK[Ala(4-THP)]DVYC[Trp(5-F)]FT[dK](DOTA)-NH2 (disulfide 3-11; SMILES CC(=O)N[C@@H](CCC(C)C)C(=O)N[C@@H](Cc1ccc(O)cc1)C(=O)N[C@H]1CSSC[C@@H](C(=O)N[C@@H](Cc2c[nH]c3ccc(F)cc23)C(=O)N[C@@H](Cc2ccccc2)C(=O)N[C@H](C(=O)N[C@H](CCCCNC(=O)CN2CCN(CC(=O)O)CCN(CC(=O)O)CCN(CC(=O)O)CC2)C(N)=O)[C@@H](C)O)NC(=O)[C@H](Cc2ccc(O)cc2)NC(=O)[C@H](C(C)C)NC(=O)[C@H](CC(=O)O)NC(=O)[C@H](CC2CCOCC2)NC(=O)[C@H](CCCCN)NC(=O)CNC(=O)[C@H](C(C)C)NC1=O) [Cpd 200]

Target: T1, B7-H3 on Calu-6 cells
Assay: 177Lu-labelled peptide on Calu-6 cells, % cell associated fraction; B = 25<%<=50

Row | % cell associated fraction | Binder
6 | 25 to 50% | Ac-[hLeu]YCV[Sar]KYDVYCWFT[dK](DOTA)-NH2 (disulfide 3-11; SMILES CC(=O)N[C@@H](CCC(C)C)C(=O)N[C@@H](Cc1ccc(O)cc1)C(=O)N[C@H]1CSSC[C@@H](C(=O)N[C@@H](Cc2c[nH]c3ccccc23)C(=O)N[C@@H](Cc2ccccc2)C(=O)N[C@H](C(=O)N[C@H](CCCCNC(=O)CN2CCN(CC(=O)O)CCN(CC(=O)O)CCN(CC(=O)O)CC2)C(N)=O)[C@@H](C)O)NC(=O)[C@H](Cc2ccc(O)cc2)NC(=O)[C@H](C(C)C)NC(=O)[C@H](CC(=O)O)NC(=O)[C@H](Cc2ccc(O)cc2)NC(=O)[C@H](CCCCN)NC(=O)CN(C)C(=O)[C@H](C(C)C)NC1=O) [Cpd 74]
7 | 25 to 50% | Ac-[hLeu]YCVGKYDVYC[Trp(5-F)]F[aThr][dK](DOTA)-NH2 (disulfide 3-11) [Cpd 162]
8 | 25 to 50% | Ac-[hLeu]YC[Tle]GKYDVYC[1Nal]FT[dK](DOTA)-NH2 (disulfide 3-11; SMILES CC(=O)N[C@@H](CCC(C)C)C(=O)N[C@@H](Cc1ccc(O)cc1)C(=O)N[C@H]1CSSC[C@@H](C(=O)N[C@@H](Cc2cccc3ccccc23)C(=O)N[C@@H](Cc2ccccc2)C(=O)N[C@H](C(=O)N[C@H](CCCCNC(=O)CN2CCN(CC(=O)O)CCN(CC(=O)O)CCN(CC(=O)O)CC2)C(N)=O)[C@@H](C)O)NC(=O)[C@H](Cc2ccc(O)cc2)NC(=O)[C@H](C(C)C)NC(=O)[C@H](CC(=O)O)NC(=O)[C@H](Cc2ccc(O)cc2)NC(=O)[C@H](CCCCN)NC(=O)CNC(=O)[C@H](C(C)(C)C)NC1=O) [Cpd 179]
9 | 25 to 50% | Ac-[hLeu]YCVGKYDVYC[Trp(5-F)]FP[dK](DOTA)-NH2 (disulfide 3-11) [Cpd 160]
10 | 25 to 50% | Ac-[hLeu]YC[Tle]GK[Ala(4-THP)]DVYC[1Nal]FP[dK]([PEG4′-DOTA])-NH2 (disulfide 3-11) [Cpd 259]
11 | 25 to 50% | Ac-[hLeu]YCVGK[Ala(4-THP)]DVYC[Trp(5-F)]FP[dK](DOTA)-OH (disulfide 3-11; SMILES CC(=O)N[C@@H](CCC(C)C)C(=O)N[C@@H](Cc1ccc(O)cc1)C(=O)N[C@H]1CSSC[C@@H](C(=O)N[C@@H](Cc2c[nH]c3ccc(F)cc23)C(=O)N[C@@H](Cc2ccccc2)C(=O)N2CCC[C@H]2C(=O)N[C@H](CCCCNC(=O)CN2CCN(CC(=O)O)CCN(CC(=O)O)CCN(CC(=O)O)CC2)C(=O)O)NC(=O)[C@H](Cc2ccc(O)cc2)NC(=O)[C@H](C(C)C)NC(=O)[C@H](CC(=O)O)NC(=O)[C@H](CC2CCOCC2)NC(=O)[C@H](CCCCN)NC(=O)CNC(=O)[C@H](C(C)C)NC1=O) [Cpd 288]
12 | 25 to 50% | Ac-[hLeu]YCVGK[Ala(4-THP)]DVYC[Trp(5-F)]FP[dK]([PEG4′-DOTA])-NH2 (disulfide 3-11) [Cpd 282]
13 | 25 to 50% | Ac-[hLeu]YC[Tle]GK[4Pal]DVYCWFT[dK](DOTA)-NH2 (disulfide 3-11; SMILES CC(=O)N[C@@H](CCC(C)C)C(=O)N[C@@H](Cc1ccc(O)cc1)C(=O)N[C@H]1CSSC[C@@H](C(=O)N[C@@H](Cc2c[nH]c3ccccc23)C(=O)N[C@@H](Cc2ccccc2)C(=O)N[C@H](C(=O)N[C@H](CCCCNC(=O)CN2CCN(CC(=O)O)CCN(CC(=O)O)CCN(CC(=O)O)CC2)C(N)=O)[C@@H](C)O)NC(=O)[C@H](Cc2ccc(O)cc2)NC(=O)[C@H](C(C)C)NC(=O)[C@H](CC(=O)O)NC(=O)[C@H](Cc2ccncc2)NC(=O)[C@H](CCCCN)NC(=O)CNC(=O)[C@H](C(C)(C)C)NC1=O) [Cpd 157]
